Assay results reported in patent US20190085311.
Positions count from the first letter of the chain named. Names may count otherwise.

B1: D160S/K196S + N107W + E106G (protein)
chain: QAKPQIPKDKSKVAGYIEIPDADIKEPVYPGPATPEQLNRGVSFAEGWESLDDQNISIAGHTFIDRPNYQFTNLKAAKKGSMVYFKVGNETRKYKMTSIRSVKPTDVGVLDEQKGKDKQLTLITCDDYNEKTGVWESRKIFVATEVK
B2: D160S/K196S + G167E (protein)
chain: B1 chain with G47E, W48N, G108E
B3: D160S/K196S + F144L (protein)
chain: B1 chain with G47E, W48N, F85L
B4: D160S/K196S + N107W + F144L + G167E (protein)
chain: B1 chain with G47E, F85L, G108E
B5: D160S/K196S + N107W (protein)
chain: B1 chain with G47E
B6: D160S/K196S + E106G (protein)
chain: B1 chain with W48N
B7: D160S/K196S + A61T (protein)
chain: B1 chain with A2T, G47E, W48N
B8: D160S/K196S + N107W + G167E (protein)
chain: B1 chain with G47E, G108E
B9: D160S/K196S + A61E (protein)
chain: B1 chain with A2E, G47E, W48N
B10: D160S/K196S + F144L + G167E (protein)
chain: B1 chain with G47E, W48N, F85L, G108E
B11: D160S/K196S + N107W + F144L (protein)
chain: B1 chain with G47E, F85L
B12: Reference 2: P94R/D160N/D165A/G167E/K190E/K196T from U.S. Pat. No. 9,267,127 (SEQ ID NO: 52) (protein)
chain: MQAKPQIPKDKSKVAGYIEIPDADIKEPVYPGPATREQLNRGVSFAEENESLDDQNISIAGHTFIDRPNYQFTNLKAAKKGSMVYFKVGNETRKYKMTSIRNVKPTAVEVLDEQKGKDKQLTLITCDDYNEETGVWEKRKIFVATEVK

Molecular target: glucose dehydrogenase containing the LPETG motif

Row | Protein | relative apparent “Km” for LPXTG
1 | B1 | 107%
2 | B2 | 131%
3 | B3 | 100%
4 | B4 | 197%
5 | B5 | 121%
6 | B6 | 121%
7 | B7 | 97%
8 | B8 | 166%
9 | B9 | 100%
10 | B10 | 166%
11 | B11 | 134%
12 | B12 | lower
